Test results: patent US20020132769A1

Biological target: fiber on the vector capsid of the adenoviral vector Av3GFP (adenovirus, serotype not stated)
Assay: cell-based or functional assay

“trimerized sCAR (sCAR followed by a glycine/serine linker, the isoleucine variant GCN4 trimerization domain, and a 6 His Tag; plasmid pGStriCARb) (receptor)” was tested, and the % GFP Positive HepG2 cells, Av3GFP + 5 µg trimeric sCAR (Av3GFP alone: 98) was 43%, the % GFP Positive HepG2 cells, Av3GFP + 10 µg trimeric sCAR (Av3GFP alone: 98) was 32% and the % GFP Positive HepG2 cells, Av3GFP + 20 µg trimeric sCAR (Av3GFP alone: 98) was 32%.
